{"source": "the supplement of paper PMC10567573", "parents": {"B1": {"name": "SNAP91 (parent)", "chain": "FATASAAVPVSTSKPSSDLLDLQP"}, "B2": {"name": "PLD5 (parent)", "chain": "KRTYWPDLDAKIREALVLRSVRVR"}}}
{"variants_of": "B1", "experiment": "protein stability index of a GFP-peptide fusion (GPS, HEK-293T) (PSI 1-6); higher = more stable", "settings": "c terminus: a fixed tail appended"}
{"variant": "A2Q", "protein stability index": 4.11}
{"variant": "A2M", "protein stability index": 3.79}
{"variant": "A2V", "protein stability index": 1.65}
{"variant": "A2F", "protein stability index": 3.21}
{"variant": "A2W", "protein stability index": 2.96}
{"variant": "A2E", "protein stability index": 4.5}
{"variant": "A2I", "protein stability index": 2.2}
{"variant": "A2L", "protein stability index": 3.75}
{"variant": "A2N", "protein stability index": 3.85}
{"variant": "A2Y", "protein stability index": 3.77}
{"variant": "A2D", "protein stability index": 5}
{"variant": "A2T", "protein stability index": 3.18}
{"variant": "A2R", "protein stability index": 3.46}
{"variant": "A2H", "protein stability index": 2.71}
{"variant": "A2P", "protein stability index": 4.27}
{"variant": "A2G", "protein stability index": 4.09}
{"variant": "A2S", "protein stability index": 4.01}
{"variant": "A2C", "protein stability index": 3.09}
{"variant": "A2K", "protein stability index": 3.99}
{"variant": "F1I", "protein stability index": 4.5}
{"variant": "F1V", "protein stability index": 4.54}
{"variant": "F1H", "protein stability index": 5.52}
{"variant": "F1M", "protein stability index": 4.67}
{"variant": "F1Q", "protein stability index": 5.06}
{"variant": "F1D", "protein stability index": 5.71}
{"variant": "F1N", "protein stability index": 4.53}
{"variant": "F1K", "protein stability index": 4.92}
{"variant": "F1A", "protein stability index": 4.84}
{"variant": "F1Y", "protein stability index": 3.8}
{"variant": "F1C", "protein stability index": 4.64}
{"variant": "F1S", "protein stability index": 4.99}
{"variant": "F1G", "protein stability index": 4.89}
{"variant": "F1R", "protein stability index": 4.99}
{"variant": "F1P", "protein stability index": 4.84}
{"variant": "F1E", "protein stability index": 5.69}
{"variant": "F1L", "protein stability index": 4.62}
{"variant": "F1T", "protein stability index": 4.91}
{"variant": "T3F", "protein stability index": 2.15}
{"variant": "T3I", "protein stability index": 2.81}
{"variant": "T3H", "protein stability index": 3.71}
{"variant": "T3C", "protein stability index": 3.45}
{"variant": "T3A", "protein stability index": 2.8}
{"variant": "T3G", "protein stability index": 2.65}
{"variant": "T3D", "protein stability index": 3.8}
{"variant": "T3K", "protein stability index": 3.22}
{"variant": "T3E", "protein stability index": 4.26}
{"variants_of": "B2", "experiment": "protein stability index of a GFP-peptide fusion (GPS, HEK-293T) (PSI 1-6); higher = more stable", "settings": "c terminus: a fixed tail appended"}
{"variant": "A15N", "protein stability index": 1.51}
{"variant": "A15Q", "protein stability index": 2.04}
{"variant": "A15V", "protein stability index": 1.04}
{"variant": "A15W", "protein stability index": 1.62}
{"variant": "A15T", "protein stability index": 1.72}
{"variant": "A15E", "protein stability index": 2.26}
{"variant": "A15Y", "protein stability index": 2.11}
{"variant": "A15K", "protein stability index": 1.9}
{"variant": "A15P", "protein stability index": 1.67}
{"variant": "R22S", "protein stability index": 2.14}
{"variant": "R22A", "protein stability index": 1.45}
{"variant": "R22E", "protein stability index": 2.02}
{"variant": "R22H", "protein stability index": 1.51}
{"variant": "R22L", "protein stability index": 1.4}
{"variant": "R22P", "protein stability index": 1.65}
{"variant": "R22G", "protein stability index": 1.65}
{"variant": "R22T", "protein stability index": 1.59}
{"variant": "R22Y", "protein stability index": 1.61}
{"variant": "R22K", "protein stability index": 1.99}
{"variant": "R22V", "protein stability index": 2.14}
{"variant": "R22D", "protein stability index": 2.31}
{"variant": "R22C", "protein stability index": 2.32}
{"variant": "L18G", "protein stability index": 1.91}
{"variant": "L18R", "protein stability index": 2.12}
{"variant": "L18K", "protein stability index": 2.64}
{"variant": "L18I", "protein stability index": 1.64}
{"variant": "L18N", "protein stability index": 2.45}
{"variant": "L18M", "protein stability index": 1.51}
{"variant": "L18S", "protein stability index": 1.88}
{"variant": "L18W", "protein stability index": 2.04}
{"variant": "L18H", "protein stability index": 2.16}
{"variant": "L18Y", "protein stability index": 2.09}
{"variant": "L18F", "protein stability index": 1.78}
{"variant": "L18E", "protein stability index": 2.93}
{"variant": "L18V", "protein stability index": 1.6}
{"variant": "L18T", "protein stability index": 1.71}
{"variant": "R24E", "protein stability index": 1.94}
{"variant": "R24K", "protein stability index": 1.08}
{"variant": "R24S", "protein stability index": 1.97}
{"variant": "R24P", "protein stability index": 2.01}
{"variant": "R24I", "protein stability index": 2.32}
{"variant": "R24Q", "protein stability index": 3.34}
{"variant": "R24Y", "protein stability index": 2.74}
{"variant": "R24H", "protein stability index": 1.74}
{"variant": "R24D", "protein stability index": 2.27}
{"variant": "R24A", "protein stability index": 1.53}
{"variant": "R24T", "protein stability index": 1.52}
{"variant": "R24F", "protein stability index": 2.13}
{"variant": "R24C", "protein stability index": 2.52}
{"variant": "R24N", "protein stability index": 1.62}
{"variant": "R24M", "protein stability index": 1.68}
{"variant": "R24L", "protein stability index": 1.77}
{"variant": "V21G", "protein stability index": 2.4}
{"variant": "V21I", "protein stability index": 1.66}
{"variant": "V21T", "protein stability index": 1.91}
{"variant": "V21E", "protein stability index": 2.24}
{"variant": "V21R", "protein stability index": 2.4}
{"variant": "V21H", "protein stability index": 2.11}
{"variant": "V21M", "protein stability index": 2.51}
{"variant": "V21Q", "protein stability index": 2}
{"variant": "V21K", "protein stability index": 2.75}
{"variant": "V21F", "protein stability index": 3.54}
{"variant": "V21N", "protein stability index": 2.48}
{"variant": "V21S", "protein stability index": 2.09}
{"variant": "V21Y", "protein stability index": 2.68}
{"variant": "V21A", "protein stability index": 1.84}
{"variant": "V23C", "protein stability index": 1.61}
{"variant": "V23Q", "protein stability index": 2.12}
{"variant": "V23F", "protein stability index": 1.9}
{"variant": "V23T", "protein stability index": 1.88}
{"variant": "V23I", "protein stability index": 1.96}
{"variant": "V23A", "protein stability index": 1.93}
{"variant": "V23L", "protein stability index": 1.03}
{"variant": "V23P", "protein stability index": 3.22}
{"variant": "V23M", "protein stability index": 3.02}
{"variant": "V23N", "protein stability index": 2.54}
{"variant": "V23Y", "protein stability index": 1.74}
{"variant": "V23H", "protein stability index": 2.1}
{"variant": "V23D", "protein stability index": 2.35}
{"variant": "V23K", "protein stability index": 1.99}
{"variant": "V23E", "protein stability index": 1.64}
{"variant": "V23W", "protein stability index": 1.78}
{"variant": "V17Q", "protein stability index": 1.57}
{"variant": "V17K", "protein stability index": 1.79}
{"variant": "V17T", "protein stability index": 1.57}
{"variant": "V17M", "protein stability index": 2.18}
{"variant": "V17R", "protein stability index": 1.32}
{"variant": "V17G", "protein stability index": 2.11}
{"variant": "V17I", "protein stability index": 1.11}
{"variant": "V17H", "protein stability index": 3.18}
{"variant": "V17E", "protein stability index": 1.6}
{"variant": "V17N", "protein stability index": 5.34}
{"variant": "V17S", "protein stability index": 1.95}
{"variant": "V17W", "protein stability index": 1.3}
{"variant": "V17L", "protein stability index": 1.91}
{"variant": "L16H", "protein stability index": 2.94}
{"variant": "L16G", "protein stability index": 1.31}
{"variant": "L16V", "protein stability index": 2.53}
{"variant": "L16P", "protein stability index": 2.02}
{"variant": "L16N", "protein stability index": 2.61}
{"variant": "L16D", "protein stability index": 2.8}
{"variant": "L16Y", "protein stability index": 2.06}
{"variant": "L16W", "protein stability index": 3.86}
{"variant": "L16S", "protein stability index": 2.51}
{"variant": "L16I", "protein stability index": 1.95}
{"variant": "S20R", "protein stability index": 2}
{"variant": "S20N", "protein stability index": 1.77}
{"variant": "S20K", "protein stability index": 1.48}
{"variant": "S20T", "protein stability index": 1.96}
{"variant": "S20Q", "protein stability index": 2.04}
{"variant": "E14T", "protein stability index": 2.42}
{"variant": "E14S", "protein stability index": 1.13}
{"variant": "R19H", "protein stability index": 1.48}
{"variant": "R19S", "protein stability index": 1.8}
{"variant": "R19C", "protein stability index": 2.36}
{"variant": "R19Q", "protein stability index": 2.53}
{"variant": "R19N", "protein stability index": 2.8}
{"variant": "R19E", "protein stability index": 1.69}
{"variant": "R19T", "protein stability index": 2.53}
{"variant": "R19K", "protein stability index": 1.45}
{"variant": "R19Y", "protein stability index": 2.67}
